Changes are numbered by the printed parent chain.
B1: (Pl)EctB, L-2,4-diaminobutyrate transaminase EctB from Paenibacillus lautus (enzyme, Paenibacillus lautus strain Y412MC10, UniProt A0A385TGF8 1-430, looked up)
chain: MDNQVMEKPKLTVFNKLESEVRSYCRSFQTVFDKARNAKLWDTQGNEYIDFFAGAGALNYGHNNERIREKLVDYILQDGVTHSLDMATGAKETFLTRFQEIILKPRGWDHKVMFPGPTGTNAVEAALKIARKVTGRSTVLCFTNAFHGMSLGSLAVTGNAFKRQGAGVDLSHSVFMPYDGYFGSDVDTMAYMEKLLDDPGSGIPLPAAVIVEAVQGEGGLNAASRQWLQKLARICKDKGMLLILDDIQMGCGRTGSFFSFDDAGIEPDIVCLSKSIGGFGLPMAITLIKPEIDIWEPGEHNGTFRGNNLGFVAAAEALSYWKTEEFQLDIGIREHRIRQSLENVVREYPRLGGEIRGRGMIQGVAFDKPEHAGRLSEIAFEQGLIMETSGPHSEVAKLMPPLTIEMNTLAEGLGIFENSMKQLAAEERLS
notes: EctB (L-2,4-diaminobutyrate transaminase) of Paenibacillus lautus strain Y412MC10; codon-optimized synthetic ectB gene; calculated mass 49.1 kDa including the Strep-tag II peptide and linker; The protein was purified as an apo-protein without PLP; also called (Pl)EctB wild-type protein; P. lautus EctB; not shown: Strep-tag II, N-terminal, kept
B2: (Pl)EctB Lys274/His variant (enzyme, Paenibacillus lautus strain Y412MC10, UniProt A0A385TGF8 1-430, looked up)
chain: B1 chain with K274H
notes: EctB (L-2,4-diaminobutyrate transaminase) of Paenibacillus lautus strain Y412MC10; codon-optimized synthetic ectB gene with Lys274 changed to His (AAA/CAT) by site-directed mutagenesis of pAR8; not shown: Strep-tag II, N-terminal, kept

Columns and labels:
(Pl)EctB = molecular target: T1, (Pl)EctB (Paenibacillus lautus, UniProt A0A385TGF8); assay: activation of apo-enzyme by added PLP, L-glutamate formation by HPLC; assay type: biochemical; settings: 10 mM DAB, 15 mM 2-oxoglutarate, 100 mM Tris-HCl pH 7.0, 100 mM NaCl, 45 °C, 1 min; titration curve only, no constant; Schiff base at Lys274 inferred
T1 construct: full length; N-terminal Strep-tag II (WSHPQFEK) with linker SGMIEGR (factor Xa site), plasmid pAR8; no tag removal described; E. coli BL21; homotetramer; purified as apo-protein, PLP added

[1] = molecular target: the molecule itself; assay: SEC-MALS; S200 300/10 GL analytical column with MALS and RI detectors, 4°C; 100 μL sample at 100 μM protein; 20 mM HEPES pH 7.5, 200 mM NaCl, 20 mM MgCl2, 20 mM KCl

Molecule | activation of apo-enzyme by added PLP, L-glutamate formation by HPLC ((Pl)EctB) | stoichiometry N [1]
Cc1ncc(COP(=O)(O)O)c(C=O)c1O [PLP] | the specific activity of (Pl)EctB strictly relies on the addition of PLP | –
B1 | – | 4
B2 | – | 4

Reference: PMC6915088, “Biosynthesis of the Stress-Protectant and Chemical Chaperon Ectoine: Biochemistry of the Transaminase EctB” (Frontiers in Microbiology, 2019)
